167 variants from the Human Domainome abundance scans (Beltran et al. 2025) can be followed below.

± gives the uncertainty stated by the source.

B1: Calcium-binding protein 2, residues 155 to 219; numbered along this chain, Q9NPB3 (parent)
chain: RELRDAFREFDTNGDGRISVGELRAALKALLGERLSQREVDEILQDVDLNGDGLVDFEEFVRMMS

In the series the parent is B1. The series is described as follows: abundance fitness (aPCA) (normalised: wild type 0, dead -1); higher = more abundant; growth selection in yeast, the domain comes from the species named. The conditions noted are these: Homo sapiens.
As for E33T, the abundance fitness is -0.032 ± 0.056.

Regarding E33M, the abundance fitness is -0.049 ± 0.12. Turning to D41Y, the abundance fitness stood at 0.03 ± 0.2. Consider D41P, for which the abundance fitness was -0.221 ± 0.14.

Consider D41M, for which the abundance fitness is -0.302 ± 0.12.

As to V61P, the abundance fitness was -0.445 ± 0.23. As for V61F, the abundance fitness was -0.134 ± 0.16. Turning to R62V, the abundance fitness was -0.074 ± 0.059. For R62W, the abundance fitness is -0.102 ± 0.066.

In the case of R62S, the abundance fitness is -0.065 ± 0.06. The value for D56Y was -0.198 ± 0.19; that for D56L was -0.201 ± 0.088; that for A25E was 0.096 ± 0.13.

For D11L, the abundance fitness is -0.937 ± 0.099. The value for R8A was -0.04 ± 0.058; that for R8S was 0.01 ± 0.084. As for R8V, the abundance fitness is -0.162 ± 0.054. Regarding R8E, the abundance fitness was -0.004 ± 0.1.

As for R4K, the abundance fitness is 0.064 ± 0.077.

With E42A, the abundance fitness is -0.183 ± 0.068. The value for E42K was -0.178 ± 0.15. As for E42W, the abundance fitness is -0.183 ± 0.087. With E42G, the abundance fitness was -0.081 ± 0.052. On to Q37C, for which the abundance fitness is -0.533 ± 0.25. As for Q37G, the abundance fitness was -0.072 ± 0.072. The value for Q37M was -0.278 ± 0.14; that for Q37P was 0.266 ± 0.16; that for G14Q was 0.023 ± 0.077. For the variant G14T, the abundance fitness was -0.547 ± 0.12. G14E: the abundance fitness is -0.165 ± 0.14. G21D: the abundance fitness amounted to 0.141 ± 0.089. As to G21N, the abundance fitness was -0.064 ± 0.1. G21I: the abundance fitness is -0.134 ± 0.18.

For the variant E22W, the abundance fitness was -0.837 ± 0.11. For the variant E22I, the abundance fitness is -0.729 ± 0.34.

For the variant E22G, the abundance fitness turned out to be 0.093 ± 0.11. For the variant V55F, the abundance fitness is 0.048 ± 0.063. For V55W the value was -0.192 ± 0.053; for L31Q, 0.086 ± 0.082.

Consider L31V, for which the abundance fitness was -0.048 ± 0.074. As for L31F, the abundance fitness worked out at 0.047 ± 0.13. For L31P the value was 0.028 ± 0.079; for R1A, -0.114 ± 0.33; for R1G, -0.204 ± 0.11. The value for R1M was 0.206 ± 0.21. Regarding R17T, the abundance fitness was -0.217 ± 0.074.

Consider D52E, for which the abundance fitness was 0.043 ± 0.068.

D52R: the abundance fitness was -0.149 ± 0.064. For the variant D52K, the abundance fitness is -0.094 ± 0.1. As to D52Q, the abundance fitness is -0.121 ± 0.11. Regarding M64C, the abundance fitness is 0.067 ± 0.21.

Consider M64D, for which the abundance fitness is -0.255 ± 0.081. On to E9S, for which the abundance fitness was -0.133 ± 0.046. As for D48W, the abundance fitness is -0.103 ± 0.065. Turning to D48Q, the abundance fitness turned out to be 0.127 ± 0.074. Take D48S: the abundance fitness is 0.109 ± 0.087.

As for D48A, the abundance fitness was 0.068 ± 0.098.

For L27A, the abundance fitness was determined as 0.122 ± 0.073. As to L27Y, the abundance fitness is -0.136 ± 0.28. Take L27R: the abundance fitness was -0.192 ± 0.057. In the case of L27K, the abundance fitness is -0.006 ± 0.26.

Consider L27G, for which the abundance fitness worked out at 0.165 ± 0.052. For L27V the value was 0.092 ± 0.068; for L27H, -0.091 ± 0.15. For L27P, the abundance fitness is -0.495 ± 0.081.

On to L27I, for which the abundance fitness was found to be 0.102 ± 0.11. For G32I, the abundance fitness was -0.438 ± 0.32. With G32S, the abundance fitness was -0.453 ± 0.083. Regarding G32F, the abundance fitness was -0.275 ± 0.12.

On to N50C, for which the abundance fitness stood at 0.032 ± 0.12.

With N50D, the abundance fitness stood at 0.186 ± 0.077. For N50Y, the abundance fitness was -0.419 ± 0.16. Consider A6V, for which the abundance fitness worked out at 0.026 ± 0.06.

As for A6L, the abundance fitness was -0.008 ± 0.048.

Regarding A6E, the abundance fitness was -0.076 ± 0.073. For the variant A6H, the abundance fitness is -0.479 ± 0.2.

With G53C, the abundance fitness was -0.121 ± 0.13. For T12P the value was -0.695 ± 0.12; for T12H, 0.039 ± 0.23. Take T12F: the abundance fitness was -0.493 ± 0.18. Take F10C: the abundance fitness is -0.143 ± 0.079. As for F10E, the abundance fitness was -0.445 ± 0.059. Take F10T: the abundance fitness was -0.144 ± 0.096. Take V20M: the abundance fitness worked out at 0.066 ± 0.094. Turning to V20Q, the abundance fitness was -0.005 ± 0.081. Regarding V20P, the abundance fitness is 0.163 ± 0.11.

Take V20A: the abundance fitness is -0.317 ± 0.092. With V20G, the abundance fitness came to 0.004 ± 0.067. Turning to N13Y, the abundance fitness is -1.12 ± 0.34.

N13G: the abundance fitness is -0.693 ± 0.12. For N13L the value was -0.974 ± 0.1; for N13S, -0.555 ± 0.09; for N13A, -0.537 ± 0.084. For A26K the value was -0.587 ± 0.43; for A26W, -0.454 ± 0.097.

On to A26T, for which the abundance fitness is -0.268 ± 0.091.

As to A26C, the abundance fitness came to 0.215 ± 0.11. For the variant L44W, the abundance fitness was -0.496 ± 0.25.

For the variant L44A, the abundance fitness was found to be 0.116 ± 0.067. For L44D the value was -0.064 ± 0.14; for I43W, -0.142 ± 0.056. In the case of I43T, the abundance fitness is 0.092 ± 0.084. Turning to F60M, the abundance fitness is -0.116 ± 0.27. Take F60W: the abundance fitness was -0.012 ± 0.072. For the variant G16I, the abundance fitness was -1.2 ± 0.22. As to G16F, the abundance fitness is -0.992 ± 0.31. G16H: the abundance fitness is -0.897 ± 0.39. With G16V, the abundance fitness is -1.14 ± 0.094. For L23T, the abundance fitness is -0.023 ± 0.14. As for L23G, the abundance fitness is -0.193 ± 0.07. Consider L23F, for which the abundance fitness is -0.235 ± 0.1. For V40T the value was -0.187 ± 0.12; for V40S, -0.011 ± 0.073; for S19K, -0.529 ± 0.1.

Take S19M: the abundance fitness was -0.285 ± 0.39. Take S19E: the abundance fitness is -0.169 ± 0.1.

S19I: the abundance fitness is -0.462 ± 0.17. Regarding S19W, the abundance fitness was -0.58 ± 0.11. In the case of E59D, the abundance fitness is -0.405 ± 0.2.

On to E59I, for which the abundance fitness was -0.051 ± 0.1. For E59M the value was 0.059 ± 0.068; for E59V, 0.083 ± 0.074. For the variant E59L, the abundance fitness was determined as 0.071 ± 0.055.

On to E59W, for which the abundance fitness was -0.259 ± 0.081.

G51P: the abundance fitness stood at 0.151 ± 0.1. With G51R, the abundance fitness was -0.085 ± 0.04. For the variant G51H, the abundance fitness is -0.071 ± 0.15. On to G51L, for which the abundance fitness is 0.06 ± 0.061.

Regarding G51F, the abundance fitness was -0.269 ± 0.18.

Consider L3Q, for which the abundance fitness is 0.018 ± 0.095. For L3R, the abundance fitness was -0.729 ± 0.073.

As for L3N, the abundance fitness is -0.345 ± 0.16. For the variant E2A, the abundance fitness is -0.509 ± 0.084. Turning to R38M, the abundance fitness is -0.112 ± 0.1. On to R38T, for which the abundance fitness was -0.052 ± 0.076. The value for R38D was 0.1 ± 0.075. The value for R38L was -0.053 ± 0.068; that for R38G was 0.014 ± 0.042.

For S36N, the abundance fitness is -0.197 ± 0.14. As for S36V, the abundance fitness is 0.07 ± 0.064. As to S36P, the abundance fitness was -0.107 ± 0.065. As to A29M, the abundance fitness was -0.049 ± 0.12. Consider A29W, for which the abundance fitness is -0.034 ± 0.067. As to A29R, the abundance fitness came to 0.047 ± 0.054.

For the variant F7K, the abundance fitness is -1.12 ± 0.12. F7M: the abundance fitness is -0.33 ± 0.072. As for M63Y, the abundance fitness was -0.108 ± 0.19.

In the case of M63K, the abundance fitness is -0.459 ± 0.18. Take M63S: the abundance fitness is -0.158 ± 0.074. On to L54V, for which the abundance fitness was -0.241 ± 0.047. Regarding L54F, the abundance fitness was -0.212 ± 0.11. For the variant L54W, the abundance fitness was -0.346 ± 0.043.

L30F: the abundance fitness is -0.17 ± 0.083.

Take L30E: the abundance fitness is -0.091 ± 0.1. The value for E58G was -0.003 ± 0.056. For E58W the value was -0.431 ± 0.13. For I18F the value was -0.747 ± 0.16. Take I18C: the abundance fitness was -0.311 ± 0.11. Consider I18T, for which the abundance fitness is -0.763 ± 0.11. In the case of I18Y, the abundance fitness is -0.592 ± 0.27. In the case of D46T, the abundance fitness came to 0.042 ± 0.1. Turning to D46Q, the abundance fitness is -0.152 ± 0.089. For L35N, the abundance fitness amounted to 0.091 ± 0.26. Turning to L35S, the abundance fitness is -0.031 ± 0.073. For L35C the value was -0.113 ± 0.18; for K28L, -0.07 ± 0.053.

As to K28F, the abundance fitness was -0.277 ± 0.27.
